Results taken from the supplement of paper PMC9732359.
± gives the uncertainty stated by the source.

Assay: protein stability index of a GFP-peptide fusion (yeast GPS) (PSI 1-4); higher = more stable; sorted into four equal gates, so the index is relative within each strain
Conditions: doa10∆
Procedure, shortened: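 Each library plasmid carries Cherry plus GFP with a tiled 17-residue yeast protein peptide fused downstream, and the pooled library was carried in yeast. Mid-log cultures in leucine-free medium were sorted into four equal gates by GFP/Cherry ratio. Reads from Illumina sequencing of PCR-amplified plasmids from each gate were assigned to strains by barcodes. Per peptide, the protein stability index was computed as the summed products of gate read frequency and gate number.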

Sequence	protein stability index
CERRSTLKLQDTRITPS [PRE6]	2.53 ± 0.061
CFICLLHLANEHGLQIT [BRN1]	2.54 ± 0.12
CHLYSQRMHAIHEIDER [NNF1]	1.24 ± 0.082
CHSKLRGQQVENPTDNF [GRR1]	2.86 ± 0.22
CIECQPKAMTDTDNECV [HRT1]	3.26 ± 0.097
CINKWIKTRDACPLDNQ [HRT1]	3.16 ± 0.093
CKRELAFVKQKNDSLEK [YIL149C/MLP2]	3.26 ± 0.16
CLDRCKEQYNRYRDLMI [MTR3]	2.64 ± 0.074
CNNINKGLKENDVAVEK [BRR2]	3.17 ± 0.12
CQLQNSDNSEEEEVDID [RRP43]	3.2 ± 0.077
CRELHNKHLTTLVEIFL [SSN3]	1.59 ± 0.04
CRLFFTELASKDNAIYN [YCS4]	1.3 ± 0.077
CYEKVLESINEGNQIIV [BRR2]	3.09 ± 0.11
DAAAEKRNGDEVYTLVD [ARP7]	3.28 ± 0.074
DAFNMLSLTTVPCDRIE [SNF6]	2.18 ± 0.05
DAFRVHICGICGLMTVI [RPB2]	1.33 ± 0.084
DAGKLVYVTGGRNLGRI [RPS4A]	2.76 ± 0.1
DAIWSLVFQLAKNFSAQ [SRB8]	2.08 ± 0.049
DANPSSQIIARNEEILR [SMC2]	2.94 ± 0.08
DDALHAKKLPNGNWEVG [DIS3]	3.3 ± 0.098
DDDDEDDDEIVMPVPNV [SKP1]	3.3 ± 0.064
DDDEVDYSEIQRSRRKF [DSN1]	2.66 ± 0.1
DDEDDEHNPTIVGGLYY [AAR2]	3.22 ± 0.12
DDEDEDDSDNVMSSDDE [PRE10]	3.17 ± 0.094
DDENNPSHYPHPYEYEI [RRP6]	3.03 ± 0.064
DDFFKELAKEAKKSTTI [ESC2]	3.17 ± 0.12

Sequence	protein stability index
DDGDDEDLLECLDRCKE [MTR3]	2.57 ± 0.097
DDNETENPNFWRQFGNR [GRR1]	3.17 ± 0.076
DDTKNQDSMSKGTGEES [YGR119C/NUP57]	3.16 ± 0.077
DDVKNILNAKYTKETYQ [RPN6]	3.26 ± 0.076
DDVYRPAAESKIFTPNL [SNF5]	2.82 ± 0.085
DEAKDFIVSGTASDQLF [PUP3]	2.74 ± 0.089
DEDDDQPMISPDNSIFG [SWI3]	3.22 ± 0.078
DEDEDEDEDDDDDDDED [QCR6]	2.25 ± 0.039
DEEMAVLTRMDEDRSKK [SNF2]	3.17 ± 0.071
DEKKDSDSSKPAFSFGT [YJL041W/NSP1]	2.75 ± 0.076
DELDAIGTKRFDSEKSG [RPT5]	2.46 ± 0.066
DEMYELTDPMTVMFFYH [DIB1]	2.69 ± 0.092
DENKAGATSKPAFSFGA [YJL041W/NSP1]	3.15 ± 0.07
DEVGRRSMLTVVRNMLA [YCG1]	1.54 ± 0.077
DFDESLKYLDDLKAQFQ [RPN9]	3.02 ± 0.15
DFIGHNSNINTLTASPD [ASC1]	2.83 ± 0.075
DFLGVASTGSGKTLAFV [PRP28]	3.42 ± 0.26
DFPHLTPKLQTQLSYLI [YCS4]	2.82 ± 0.043
DFQIDGNIFELLSDTFE [RRI2]	2.04 ± 0.095
DFRTRYIDIRTNNVLRK [MTW1]	2.45 ± 0.087
DFTLIPRMASVFENYVK [CDC53]	3.15 ± 0.091
DGHLRAPLKHGVGILYK [BRR2]	1.31 ± 0.055
DGYQLFHAEPSGTFYRY [PUP2]	2.14 ± 0.11
DHKYVCTFSMEPYHFIS [SRB8]	2.37 ± 0.061
DHQHILRKLKKMNNKPE [RPC53]	1.87 ± 0.053
DIDVTIVSKEYEKNFEA [ESC2]	3.27 ± 0.15

Sequence	protein stability index
DIEVPDVNALKFNNTQR [SNF12]	2.97 ± 0.1
DIFAVNLEESSKLDIYT [RET1]	2.98 ± 0.097
DIIQGNPLMYSGGNNTA [PCI8]	3.17 ± 0.082
DIKDFADKVYTKENLEV [QCR2]	3.34 ± 0.092
DIPGVRFKVVKVSGVSL [RPS23A]	1.62 ± 0.084
DIVSIDIEEPQLDLLDD [MTW1]	2.66 ± 0.098
DIWRVAGKFELLDRILP [SNF2]	2.37 ± 0.086
DIYMHDVNSASKSESDS [RRP4]	3.59 ± 0.12
DKARRLGYKAKQGFVIY [RPL15A]	3.24 ± 0.16
DKETQLKKRAVSGVELR [POP7]	2.7 ± 0.21
DKILQLNDRFQTLSSHL [PGD1]	2.46 ± 0.048
DKKLLRRLLNLYNDNNK [SWI1]	2.48 ± 0.088
DKKQQTIDEQSQISPEK [RPN1]	3.29 ± 0.11
DKKYKGLTTVWLLSALG [REC8]	2.24 ± 0.054
DKLEKVTHDCYRVTLES [RPC34]	3.37 ± 0.16
DKLINDVTAIQTWSYLS [ECM29]	1.77 ± 0.04
DKLLDFIRYDVKTPKKT [CSN12]	2.73 ± 0.046
DKQGWTPLFHALAEGHG [NAS6]	2.75 ± 0.2
DKSTKTAEAPTLSFNFS [YOR098C/NUP1]	3.27 ± 0.076
DKTAVKLDTEVKNTNAN [SWP82]	2.5 ± 0.077
DLAMANSLRRVMIAEIP [RPB3]	1.23 ± 0.061
DLCSLKPYVDRFAFSVI [DIS3]	1.93 ± 0.05
DLEHKEDCVEEFFHLQH [QCR6]	2.77 ± 0.1
DLENKFNRLKKQAHEKL [YIL149C/MLP2]	2.75 ± 0.11
DLETSLSQSSSYLETLT [MED2]	2.94 ± 0.075
DLFGDSNKSNSTNESNK [SSN2]	3.2 ± 0.078

Sequence	protein stability index
DLFSNNNYNSRIQLMND [MED1]	3 ± 0.2
DLIKFSAETLSELIRTT [FAS1]	2.1 ± 0.076
DLKSLNVRDDMKPSDNI [SSN2]	2.94 ± 0.22
DLLDMIQFGAKNMFEKK [ISW2]	3.25 ± 0.14
DLLILTRSIKEKWLLNQ [SRB6]	1.12 ± 0.1
DLLNAASIESADILCPL [IRR1]	3.05 ± 0.2
DLQLLYVESDEDDTQIV [IRR1]	3.32 ± 0.17
DLRIRIKLDIVVGQNQL [SNF5]	1.38 ± 0.088
DLSLLGYCDDIAAMVAQ [SIR2]	2.56 ± 0.06
DLYEQIGIDPPRGVLLY [RPT3]	2.6 ± 0.073
DMDGVDFNQAFEGTDDN [BRN1]	2.97 ± 0.094
DNDFIINDFKKIGRENE [POP5]	3.33 ± 0.071
DNDRFNVVGKLISIISS [YML103C/NUP188]	1.3 ± 0.064
DNEEWMNDVINTEEVNR [LIN1]	3.2 ± 0.071
DNIDYAPMRLATAALEI [YJL039C/NUP192]	2.35 ± 0.058
DNNSKAEASFTFGTKHA [YLR335W/NUP2]	3.21 ± 0.082
DNNSSLNVSNTKENGDF [PRP8]	3.17 ± 0.083
DNSNVMTVKLESITYQK [RGR1]	2.88 ± 0.096
DPFFAQSEDLSHAVEFF [YML103C/NUP188]	3.23 ± 0.056
DPNEVEIKKLLATNSLV [DIS3]	2.19 ± 0.049
DPNEVKYLYLRAVGGEV [RPL12A]	1.77 ± 0.073
DPNLELDQVGVPKSIAK [RPO21]	3.48 ± 0.23
DPNLSFESSSSLPFLLR [SSN2]	3.07 ± 0.16
DPQDVFNYNIFMHDPSV [SIR2]	2.66 ± 0.08

Same assay, conditions: pdr5∆

Sequence	protein stability index
CERRSTLKLQDTRITPS [PRE6]	2.81 ± 0.092
